What was measured:
Experiment in all cases: cell-based or functional assay
ALK4(h) (human) = ALK4(h) (human) (UniProt P36896)
AMPKa2(h) (human) = AMPKa2(h) (human) (UniProt P54646)
Ab1(T315I)(h) (human) = Ab1(T315I)(h) (human) (UniProt P00519)
Arg(h) (human) = Arg(h) (human) (UniProt P42684)
Aurora-A(h) (human) = Aurora-A(h) (human) (UniProt O14965)
Ax1(h) (human) = Ax1(h) (human) (UniProt P30530)
BRK(h) (human) = BRK(h) (human) (UniProt Q13882)
BTK(R28H)(h) (human) = BTK(R28H)(h) (human) (UniProt Q06187)
BTK(h) (human) = BTK(h) (human) (UniProt Q06187)
Bmx(h) (human) = Bmx(h) (human) (UniProt P51813)
CDK1/cyclinB(h) (human) = CDK1/cyclinB(h) (human) (UniProt P06493)
CDK5/p35(h) (human) = CDK5/p35(h) (human) (UniProt Q00535)
CDK6/cyclinD3(h) (human) = CDK6/cyclinD3(h) (human) (UniProt Q00534)
CK1δ(h) (human) = CK1δ(h) (human) (UniProt P48730)
CK2(h) (human) = molecular target: CK2(h) (human)
CaMKIV(h) (human) = CaMKIV(h) (human) (UniProt Q16566)
DAPK2(h) (human) = DAPK2(h) (human) (UniProt Q9UIK4)
DCAMKL2(h) (human) = DCAMKL2(h) (human) (UniProt Q8N568)
EGFR(L858R)(h) (human) = EGFR(L858R)(h) (human) (UniProt P00533)
EGFR(T790M)(h) (human) = EGFR(T790M)(h) (human) (UniProt P00533)
FGFR3(h) (human) = FGFR3(h) (human) (UniProt P22607)
Fes(h) (human) = Fes(h) (human) (UniProt P07332)
Flt3(D835Y)(h) (human) = Flt3(D835Y)(h) (human) (UniProt P36888)
GRK7(h) (human) = GRK7(h) (human) (UniProt Q8WTQ7)
Haspin(h) (human) = Haspin(h) (human) (UniProt Q8TF76)
Hck(h) (human) = Hck(h) (human) (UniProt P08631)
[1] = molecular target: IGF-1R(h), activated (human) (UniProt P08069)
IR(h) (human) = IR(h) (human) (UniProt P06213)
JNK2α2(h) (human) = JNK2α2(h) (human) (UniProt P45984)
MARK1(h) (human) = MARK1(h) (human) (UniProt Q9P0L2)
MLK1(h) (human) = MLK1(h) (human) (UniProt P80192)
MRCKα(h) (human) = MRCKα(h) (human) (UniProt Q5VT25)
MRCKβ(h) (human) = MRCKβ(h) (human) (UniProt Q9Y5S2)
MSSK1(h) (human) = MSSK1(h) (human) (UniProt Q9UPE1)
Met(D1246N)(h) (human) = Met(D1246N)(h) (human) (UniProt P08581)
NEK3(h) (human) = NEK3(h) (human) (UniProt P51956)
PDGFRα(V561D)(h) (human) = PDGFRα(V561D)(h) (human) (UniProt P16234)
PDGFRα(h) (human) = PDGFRα(h) (human) (UniProt P16234)
PDK1(h) (human) = PDK1(h) (human) (UniProt O15530)
PKA(h) (human) = molecular target: PKA(h) (human)
PKBα(h) (human) = PKBα(h) (human) (UniProt P31749)
PKCβI(h) (human) = PKCβI(h) (human) (UniProt P05771)
PKCγ(h) (human) = PKCγ(h) (human) (UniProt P05129)
PKCζ(h) (human) = PKCζ(h) (human) (UniProt Q05513)
PKCθ(h) (human) = PKCθ(h) (human) (UniProt Q04759)
RIPK2(h) (human) = RIPK2(h) (human) (UniProt O43353)
ROCK-II(h) (human) = ROCK-II(h) (human) (UniProt O75116)
Ron(h) (human) = Ron(h) (human) (UniProt Q04912)
Rsk3(h) (human) = Rsk3(h) (human) (UniProt Q15349)
SAPK2b(h) (human) = SAPK2b(h) (human) (UniProt Q15759)
SAPK4(h) (human) = SAPK4(h) (human) (UniProt O15264)
SGK(h) (human) = SGK(h) (human) (UniProt O00141)
Syk(h) (human) = Syk(h) (human) (UniProt P43405)
Tie2(Y897S)(h) (human) = Tie2(Y897S)(h) (human) (UniProt Q02763)
WNK3(h) (human) = WNK3(h) (human) (UniProt Q9BYP7)
cKit(D816V)(h) (human) = cKit(D816V)(h) (human) (UniProt P10721)

Chain of ALK4(h) (human) (P36896 150-505 limits assumed): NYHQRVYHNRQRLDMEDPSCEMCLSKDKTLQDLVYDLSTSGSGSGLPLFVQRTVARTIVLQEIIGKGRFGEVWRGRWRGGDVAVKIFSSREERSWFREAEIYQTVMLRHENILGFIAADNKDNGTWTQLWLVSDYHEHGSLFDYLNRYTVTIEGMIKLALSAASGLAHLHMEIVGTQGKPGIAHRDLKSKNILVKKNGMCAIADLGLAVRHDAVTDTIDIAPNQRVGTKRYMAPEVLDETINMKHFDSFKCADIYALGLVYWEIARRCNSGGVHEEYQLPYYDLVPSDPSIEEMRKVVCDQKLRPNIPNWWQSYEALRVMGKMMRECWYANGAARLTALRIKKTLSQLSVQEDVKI
Chain of Tie2(Y897S)(h) (human) (Q02763 771-1124 Y897S limits assumed): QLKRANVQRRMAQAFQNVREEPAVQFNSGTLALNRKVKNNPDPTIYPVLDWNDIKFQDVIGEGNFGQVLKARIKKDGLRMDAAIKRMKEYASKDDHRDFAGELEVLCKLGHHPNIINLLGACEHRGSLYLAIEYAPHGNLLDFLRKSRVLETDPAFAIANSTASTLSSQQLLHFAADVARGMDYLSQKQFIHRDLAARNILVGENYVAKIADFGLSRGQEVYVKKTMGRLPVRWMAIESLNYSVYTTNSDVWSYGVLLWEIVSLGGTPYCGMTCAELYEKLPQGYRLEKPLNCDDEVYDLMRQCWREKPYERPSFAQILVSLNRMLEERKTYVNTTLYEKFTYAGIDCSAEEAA
Chain of MRCKα(h) (human) (Q5VT25 1-473 limits assumed): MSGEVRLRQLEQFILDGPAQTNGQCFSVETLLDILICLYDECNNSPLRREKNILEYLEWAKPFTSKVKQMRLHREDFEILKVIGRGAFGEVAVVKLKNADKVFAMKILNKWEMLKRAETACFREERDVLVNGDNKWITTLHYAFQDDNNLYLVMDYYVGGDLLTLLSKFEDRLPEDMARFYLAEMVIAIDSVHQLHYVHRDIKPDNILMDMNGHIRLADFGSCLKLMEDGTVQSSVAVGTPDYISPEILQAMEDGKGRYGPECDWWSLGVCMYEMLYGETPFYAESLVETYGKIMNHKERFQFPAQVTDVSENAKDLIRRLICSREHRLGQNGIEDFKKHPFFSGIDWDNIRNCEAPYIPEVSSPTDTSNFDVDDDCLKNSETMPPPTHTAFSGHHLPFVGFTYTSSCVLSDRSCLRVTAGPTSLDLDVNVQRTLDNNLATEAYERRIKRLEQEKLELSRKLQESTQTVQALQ
Chain of PDK1(h) (human) (O15530 whole entry): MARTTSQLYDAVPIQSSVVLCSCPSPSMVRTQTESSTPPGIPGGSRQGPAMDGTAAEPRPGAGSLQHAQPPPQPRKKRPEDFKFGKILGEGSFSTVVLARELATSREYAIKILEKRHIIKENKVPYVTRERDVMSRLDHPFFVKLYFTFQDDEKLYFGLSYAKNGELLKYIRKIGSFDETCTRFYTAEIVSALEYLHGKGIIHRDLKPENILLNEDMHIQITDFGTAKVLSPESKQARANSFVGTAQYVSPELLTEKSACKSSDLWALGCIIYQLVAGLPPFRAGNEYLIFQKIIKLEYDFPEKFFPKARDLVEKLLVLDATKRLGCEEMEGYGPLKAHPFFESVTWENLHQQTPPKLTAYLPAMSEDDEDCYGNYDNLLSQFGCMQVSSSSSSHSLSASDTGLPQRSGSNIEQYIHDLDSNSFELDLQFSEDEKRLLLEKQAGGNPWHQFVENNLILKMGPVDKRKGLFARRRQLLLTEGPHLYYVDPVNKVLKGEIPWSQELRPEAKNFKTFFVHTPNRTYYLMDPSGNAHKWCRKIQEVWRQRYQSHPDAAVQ
Chain of CK1δ(h) (human) (P48730 1-294, stated change not applied): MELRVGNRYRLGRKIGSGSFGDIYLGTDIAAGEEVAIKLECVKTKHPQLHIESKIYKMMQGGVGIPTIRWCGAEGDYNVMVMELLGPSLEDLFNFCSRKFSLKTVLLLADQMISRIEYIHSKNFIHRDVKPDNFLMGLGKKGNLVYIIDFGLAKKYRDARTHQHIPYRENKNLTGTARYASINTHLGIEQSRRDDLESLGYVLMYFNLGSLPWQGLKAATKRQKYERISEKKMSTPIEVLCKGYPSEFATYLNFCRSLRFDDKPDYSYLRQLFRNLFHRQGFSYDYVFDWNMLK
Chain of IR(h) (human) (P06213 1005-1310 limits assumed): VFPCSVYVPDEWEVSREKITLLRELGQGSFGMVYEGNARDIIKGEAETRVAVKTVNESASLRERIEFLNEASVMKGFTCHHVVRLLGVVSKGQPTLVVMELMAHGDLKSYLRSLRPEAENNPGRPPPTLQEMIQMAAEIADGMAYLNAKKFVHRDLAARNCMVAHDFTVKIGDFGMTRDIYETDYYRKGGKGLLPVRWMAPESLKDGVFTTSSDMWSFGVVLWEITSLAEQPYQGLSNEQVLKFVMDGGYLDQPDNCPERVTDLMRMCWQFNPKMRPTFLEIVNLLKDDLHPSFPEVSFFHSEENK
Chain of Hck(h) (human) (P08631 251-518 limits assumed): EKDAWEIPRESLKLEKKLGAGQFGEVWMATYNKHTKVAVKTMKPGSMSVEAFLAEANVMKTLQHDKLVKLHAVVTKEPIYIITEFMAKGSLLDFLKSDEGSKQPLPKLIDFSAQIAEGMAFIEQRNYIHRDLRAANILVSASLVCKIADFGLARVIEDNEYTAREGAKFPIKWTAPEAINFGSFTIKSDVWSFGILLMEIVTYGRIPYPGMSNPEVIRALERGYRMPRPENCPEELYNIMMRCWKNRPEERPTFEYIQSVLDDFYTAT
Chain of PKCβI(h) (human) (P05771 whole entry): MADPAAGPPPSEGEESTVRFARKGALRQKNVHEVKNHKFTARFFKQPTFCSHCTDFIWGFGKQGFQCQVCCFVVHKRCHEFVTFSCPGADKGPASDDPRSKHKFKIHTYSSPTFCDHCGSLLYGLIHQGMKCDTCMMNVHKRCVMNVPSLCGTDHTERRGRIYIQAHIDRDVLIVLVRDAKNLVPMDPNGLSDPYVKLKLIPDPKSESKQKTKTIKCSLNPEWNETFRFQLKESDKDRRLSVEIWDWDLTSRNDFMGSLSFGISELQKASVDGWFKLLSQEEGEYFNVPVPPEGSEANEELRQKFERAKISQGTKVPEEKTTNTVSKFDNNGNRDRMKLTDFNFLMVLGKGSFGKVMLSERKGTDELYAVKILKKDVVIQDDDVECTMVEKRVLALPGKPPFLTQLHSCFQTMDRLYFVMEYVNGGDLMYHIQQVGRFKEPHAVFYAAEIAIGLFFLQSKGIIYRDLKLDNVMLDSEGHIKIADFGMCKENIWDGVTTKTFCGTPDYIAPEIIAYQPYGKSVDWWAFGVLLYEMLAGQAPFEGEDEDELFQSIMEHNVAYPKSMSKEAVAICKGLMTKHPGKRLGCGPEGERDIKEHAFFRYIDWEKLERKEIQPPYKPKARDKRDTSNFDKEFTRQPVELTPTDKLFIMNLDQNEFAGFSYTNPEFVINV
Chain of NEK3(h) (human) (P51956 whole entry): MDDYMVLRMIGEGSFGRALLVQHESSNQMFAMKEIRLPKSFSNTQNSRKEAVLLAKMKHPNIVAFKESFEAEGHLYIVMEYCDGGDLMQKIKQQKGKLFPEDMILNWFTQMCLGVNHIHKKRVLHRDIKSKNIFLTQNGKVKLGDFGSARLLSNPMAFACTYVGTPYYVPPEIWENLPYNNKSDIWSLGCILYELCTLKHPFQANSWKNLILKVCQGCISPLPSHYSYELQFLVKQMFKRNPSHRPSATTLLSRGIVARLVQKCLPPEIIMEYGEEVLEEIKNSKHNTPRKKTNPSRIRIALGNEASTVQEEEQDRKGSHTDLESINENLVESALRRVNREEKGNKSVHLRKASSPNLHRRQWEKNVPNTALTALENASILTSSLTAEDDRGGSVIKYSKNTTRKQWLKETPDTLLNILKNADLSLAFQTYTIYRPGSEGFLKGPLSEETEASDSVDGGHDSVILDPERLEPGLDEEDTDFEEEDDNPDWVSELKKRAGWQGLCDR
Chain of DAPK2(h) (human) (Q9UIK4 whole entry): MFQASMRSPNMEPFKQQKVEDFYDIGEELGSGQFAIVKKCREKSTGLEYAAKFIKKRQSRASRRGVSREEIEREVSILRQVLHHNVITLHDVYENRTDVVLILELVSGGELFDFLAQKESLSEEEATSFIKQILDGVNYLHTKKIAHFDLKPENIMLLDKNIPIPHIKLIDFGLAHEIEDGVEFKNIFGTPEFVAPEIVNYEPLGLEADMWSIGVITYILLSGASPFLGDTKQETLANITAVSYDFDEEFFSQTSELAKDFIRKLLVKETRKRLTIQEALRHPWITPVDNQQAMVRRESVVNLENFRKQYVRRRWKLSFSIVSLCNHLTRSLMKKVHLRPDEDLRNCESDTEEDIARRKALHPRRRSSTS

With MMI-0100 (peptide) the % activity (ALK4(h) (human)) was 124%, the % activity (AMPKa2(h) (human)) was 121% and the % activity (Ab1(T315I)(h) (human)) was 98%. For the same substance, the % activity (Arg(h) (human)) was 89%, the % activity (Aurora-A(h) (human)) was 120% and the % activity (Ax1(h) (human)) was 81%. For the same substance, the % activity (BRK(h) (human)) was 70%, the % activity (BTK(R28H)(h) (human)) was 91% and the % activity (BTK(h) (human)) was 112%. For the same substance, the % activity (Bmx(h) (human)) was 62%, the % activity (CDK1/cyclinB(h) (human)) was 96% and the % activity (CDK5/p35(h) (human)) was 94%. The % activity (CDK6/cyclinD3(h) (human)) was 103%, the % activity (CK1δ(h) (human)) was 115% and the % activity (CK2(h) (human)) was 90%. It also gave a % activity (CaMKIV(h) (human)) of 87%, a % activity (DAPK2(h) (human)) of 41% and a % activity (DCAMKL2(h) (human)) of 146%. The % activity (EGFR(L858R)(h) (human)) was 76%, the % activity (EGFR(T790M)(h) (human)) was 106% and the % activity (FGFR3(h) (human)) was 73%. For the same substance, the % activity (Fes(h) (human)) was 44%, the % activity (Flt3(D835Y)(h) (human)) was 120% and the % activity (GRK7(h) (human)) was 111%. The % activity (Haspin(h) (human)) was 127%, the % activity (Hck(h) (human)) was 354% and the % activity [1] was 126%. It also gave a % activity (IR(h) (human)) of 112%, a % activity (JNK2α2(h) (human)) of 114% and a % activity (MARK1(h) (human)) of 109%. The % activity (MLK1(h) (human)) was 77%, the % activity (MRCKα(h) (human)) was 98% and the % activity (MRCKβ(h) (human)) was 103%. For the same substance, the % activity (MSSK1(h) (human)) was 82%, the % activity (Met(D1246N)(h) (human)) was 114% and the % activity (NEK3(h) (human)) was 100%. It also gave a % activity (PDGFRα(V561D)(h) (human)) of 58%, a % activity (PDGFRα(h) (human)) of 104% and a % activity (PDK1(h) (human)) of 144%. For the same substance, the % activity (PKA(h) (human)) was 138%, the % activity (PKBα(h) (human)) was 140% and the % activity (PKCβI(h) (human)) was 88%. For the same substance, the % activity (PKCγ(h) (human)) was 94%, the % activity (PKCζ(h) (human)) was 82% and the % activity (PKCθ(h) (human)) was 102%. For the same substance, the % activity (RIPK2(h) (human)) was 92%, the % activity (ROCK-II(h) (human)) was 102% and the % activity (Ron(h) (human)) was 117%. The % activity (Rsk3(h) (human)) was 76%, the % activity (SAPK2b(h) (human)) was 99% and the % activity (SAPK4(h) (human)) was 98%. The % activity (SGK(h) (human)) was 128%, the % activity (Syk(h) (human)) was 45% and the % activity (Tie2(Y897S)(h) (human)) was 99%. For the same substance, the % activity (WNK3(h) (human)) was 100% and the % activity (cKit(D816V)(h) (human)) was 117%.
MMI-0200 (peptide) was tested, and the % activity (ALK4(h) (human)) was 152%, the % activity (AMPKa2(h) (human)) was 88% and the % activity (Ab1(T315I)(h) (human)) was 108%. For the same substance, the % activity (Arg(h) (human)) was 82%, the % activity (Aurora-A(h) (human)) was 107% and the % activity (Ax1(h) (human)) was 99%. It also gave a % activity (BRK(h) (human)) of 127%, a % activity (BTK(R28H)(h) (human)) of 104% and a % activity (BTK(h) (human)) of 100%. It also gave a % activity (Bmx(h) (human)) of 76%, a % activity (CDK1/cyclinB(h) (human)) of 115% and a % activity (CDK5/p35(h) (human)) of 92%. For the same substance, the % activity (CDK6/cyclinD3(h) (human)) was 100%, the % activity (CK1δ(h) (human)) was 92% and the % activity (CK2(h) (human)) was 83%. It also gave a % activity (CaMKIV(h) (human)) of 71%, a % activity (DAPK2(h) (human)) of 92% and a % activity (DCAMKL2(h) (human)) of 131%. The % activity (EGFR(L858R)(h) (human)) was 120%, the % activity (EGFR(T790M)(h) (human)) was 113% and the % activity (FGFR3(h) (human)) was 208%. It also gave a % activity (Fes(h) (human)) of 74%, a % activity (Flt3(D835Y)(h) (human)) of 115% and a % activity (GRK7(h) (human)) of 124%. For the same substance, the % activity (Haspin(h) (human)) was 71%, the % activity (Hck(h) (human)) was 107% and the % activity [1] was 94%. For the same substance, the % activity (IR(h) (human)) was 90%, the % activity (JNK2α2(h) (human)) was 109% and the % activity (MARK1(h) (human)) was 102%. It also gave a % activity (MLK1(h) (human)) of 84%, a % activity (MRCKα(h) (human)) of 103% and a % activity (MRCKβ(h) (human)) of 102%. It also gave a % activity (MSSK1(h) (human)) of 100%, a % activity (Met(D1246N)(h) (human)) of 149% and a % activity (NEK3(h) (human)) of 100%. It also gave a % activity (PDGFRα(V561D)(h) (human)) of 106%, a % activity (PDGFRα(h) (human)) of 108% and a % activity (PDK1(h) (human)) of 143%. For the same substance, the % activity (PKA(h) (human)) was 110%, the % activity (PKBα(h) (human)) was 110% and the % activity (PKCβI(h) (human)) was 98%. It also gave a % activity (PKCγ(h) (human)) of 101%, a % activity (PKCζ(h) (human)) of 98% and a % activity (PKCθ(h) (human)) of 101%. It also gave a % activity (RIPK2(h) (human)) of 98%, a % activity (ROCK-II(h) (human)) of 85% and a % activity (Ron(h) (human)) of 120%. The % activity (Rsk3(h) (human)) was 109%, the % activity (SAPK2b(h) (human)) was 95% and the % activity (SAPK4(h) (human)) was 106%. It also gave a % activity (SGK(h) (human)) of 115%, a % activity (Syk(h) (human)) of 36% and a % activity (Tie2(Y897S)(h) (human)) of 85%. The % activity (WNK3(h) (human)) was 97% and the % activity (cKit(D816V)(h) (human)) was 118%.
